This data set is described as follows: self-splicing fitness, log relative to wild type (ln ratio); higher = more splicing; Tetrahymena group I intron in knt gene, E. coli kanamycin selection, DiMSum; sequences stand for … in CUCUCU…GGAGGGAAAAGUUAUCAGGCAUGCACCUGGUAGCUAGUCUUUAAACCAAUAGAUUGCAUCGGUUUAAAAGGCAAGACCGUCAAAUUGCGGGAAAGGGGUCAACAGCCGUUCAGUACCAAGUCUCAGGGGAAACUUUGAGAUGGCCUUGCAAAGGGUAUGGUAAUAAGCUGACGGACAUGGUCCUAACCACGCAGCCAAGUCCUAAGUCAACAGAUCUUCUGUUGAUAUGGAUGCAGUUCACAGACUAAAUGUCGGUCGGGGAAGAUGUAUUCUUCUCAUAAGAUAUAGUCGGACCUCUCCUUAAUGGGAGCUAGCGGAUGAAGUGAUGCAACACUGGAGCCGCUGGGAACUAAUUUGUAUGCGAAAGUAUAUUGAUUAGUUUUGGAGUACUCGUGGUCG
An outline of the steps:
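Colonies from six replicate transformations of E. coli BL21(DE3) were pooled and amplicon-sequenced on an Illumina HiSeq 2500. The library placed an intron with all eight P1ex-region nucleotides randomised inside the knt kanamycin-resistance gene on pET-22b(+), and cells grew overnight at 37°C or 30°C on LB agar with or without 25 μg/mL kanamycin (plus 100 μg/mL carbenicillin, 50 μM IPTG, 0.2% rhamnose). Fitness is the DiMSum error-weighted combination of wild-type-normalised replicate fold changes, kanamycin versus none.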

± gives the uncertainty stated by the source.

In the case of ACGCAGCAAUAUUACGCACA, the “self-splicing fitness (ln)” value is -0.862 ± 0.11 (30 °C) and -0.0125 ± 0.12 (37 °C).
On to AUCGAGCAAUAUUACGCGCG, for which the “self-splicing fitness (ln)” value is -2.29 ± 0.15 (30 °C) and -0.653 ± 0.16 (37 °C).
On the same counts, the results for AAUUAGCAAUAUUACGCAUU are -2.52 ± 0.17 and -2.69 ± 0.21.
In the case of UCCUAGCAAUAUUACGGACA, the “self-splicing fitness (ln)” value runs as follows: (30 °C) -2.68 ± 0.37; (37 °C) -2.29 ± 0.31.
With UCAUAGCAAUAUUACGGUAC, where the note is “37 °C”, the “self-splicing fitness (ln)” value is -3.21 ± 0.33.
On to UAUUAGCAAUAUUACGCGAA, for which the “self-splicing fitness (ln)” value by setting is: (30 °C) -2.22 ± 0.29; (37 °C) -0.951 ± 0.17.
Turning to AUUAAGCAAUAUUACGCCUU, the “self-splicing fitness (ln)” value is -0.293 ± 0.16 (30 °C) and 0.373 ± 0.19 (37 °C).
As to CCGGAGCAAUAUUACGGCUC, under “37 °C”, the “self-splicing fitness (ln)” value was -2.08 ± 0.37.
Turning to AAGUAGCAAUAUUACGAGUG, the “self-splicing fitness (ln)” value (30 °C) is -3.16 ± 0.18 and the “self-splicing fitness (ln)” value (37 °C) was -2.03 ± 0.19.
Turning to GUGCAGCAAUAUUACGACGA, the “self-splicing fitness (ln)” value (30 °C) is -0.272 ± 0.15 and the “self-splicing fitness (ln)” value (37 °C) stood at 0.701 ± 0.14.
For the sequence ACGAAGCAAUAUUACGUCCU, the “self-splicing fitness (ln)” value (30 °C) is -0.493 ± 0.083 and the “self-splicing fitness (ln)” value (37 °C) is -0.288 ± 0.11.
As to ACUAAGCAAUAUUACGCUUA, the “self-splicing fitness (ln)” value is, setting by setting: (30 °C) -2.54 ± 0.25; (37 °C) -2.83 ± 0.32.
On the same counts, the results for AGCCAGCAAUAUUACGUGCG are -0.906 ± 0.077 and -0.256 ± 0.087.
For CCGAAGCAAUAUUACGCUAU, the “self-splicing fitness (ln)” value (37 °C) was -2.24 ± 0.25.
ACCAAGCAAUAUUACGGAAA: the “self-splicing fitness (ln)” value is, setting by setting: (30 °C) -3.14 ± 0.18; (37 °C) -1.9 ± 0.13.
As for ACGAAGCAAUAUUACGAUGA, the “self-splicing fitness (ln)” value by setting is: (30 °C) -1.88 ± 0.18; (37 °C) -1.29 ± 0.17.
In the case of UAAAAGCAAUAUUACGGGUA, the “self-splicing fitness (ln)” value reads like this: (30 °C) -0.918 ± 0.09; (37 °C) -0.192 ± 0.095.
AUUCAGCAAUAUUACGCCCC: the “self-splicing fitness (ln)” value (30 °C) amounted to 0.0239 ± 0.13 and the “self-splicing fitness (ln)” value (37 °C) came out at 0.082 ± 0.23.
As to GUAGAGCAAUAUUACGUUCU, the “self-splicing fitness (ln)” value by setting is: (30 °C) -2.74 ± 0.12; (37 °C) -0.917 ± 0.099.
Taken in the same sequence, the figures for AGUUAGCAAUAUUACGUCGG were -3.45 ± 0.23 and -1.67 ± 0.16.
Turning to UGUGAGCAAUAUUACGCAGU, under “37 °C”, the “self-splicing fitness (ln)” value was -1.74 ± 0.26.
Take CUAAAGCAAUAUUACGUUAG: the “self-splicing fitness (ln)” value by setting is: (30 °C) -2.33 ± 0.093; (37 °C) -1.77 ± 0.1.
UUAAAGCAAUAUUACGCGAG: the “self-splicing fitness (ln)” value was -0.116 ± 0.071 (30 °C) and 0.3 ± 0.085 (37 °C).
On the same counts, the results for AAAUAGCAAUAUUACGCCCU are 0.528 ± 0.16 and 0.336 ± 0.21.
For CAAGAGCAAUAUUACGAUUA, the “self-splicing fitness (ln)” value reads like this: (30 °C) -1.92 ± 0.19; (37 °C) -0.907 ± 0.21.
GCACAGCAAUAUUACGCCUA: the “self-splicing fitness (ln)” value is -0.82 ± 0.13 (30 °C) and -0.373 ± 0.11 (37 °C).
On the same counts, the results for UAAUAGCAAUAUUACGUUAU are -2.86 ± 0.21 and -1.44 ± 0.19.
In the case of GAAUAGCAAUAUUACGGAAC, the “self-splicing fitness (ln)” value is -2.37 ± 0.16 (30 °C) and -0.0927 ± 0.15 (37 °C).
For CAGCAGCAAUAUUACGGACC, for the setting “37 °C”, the “self-splicing fitness (ln)” value is -1.84 ± 0.34.
As for CGUUAGCAAUAUUACGAGAU, the “self-splicing fitness (ln)” value is -2.01 ± 0.23 (30 °C) and -2.33 ± 0.35 (37 °C).
Take AUGUAGCAAUAUUACGUUUG: the “self-splicing fitness (ln)” value by setting is: (30 °C) -3.35 ± 0.23; (37 °C) -2.72 ± 0.25.
For UGACAGCAAUAUUACGAUCC, the “self-splicing fitness (ln)” value reads like this: (30 °C) -0.422 ± 0.09; (37 °C) 0.083 ± 0.11.
CGCCAGCAAUAUUACGCCAU: the “self-splicing fitness (ln)” value (37 °C) is -2.11 ± 0.46.
Take CAAAAGCAAUAUUACGGUAG: the “self-splicing fitness (ln)” value is, setting by setting: (30 °C) -0.372 ± 0.058; (37 °C) -0.148 ± 0.074.
As for UCCCAGCAAUAUUACGCGCG, the “self-splicing fitness (ln)” value runs as follows: (30 °C) -3.27 ± 0.17; (37 °C) -2.98 ± 0.24.
For UGAUAGCAAUAUUACGAGUC, the “self-splicing fitness (ln)” value runs as follows: (30 °C) -3.08 ± 0.22; (37 °C) -3.08 ± 0.4.
For CGCUAGCAAUAUUACGUGUU, the “self-splicing fitness (ln)” value (30 °C) was -4.69 ± 0.29 and the “self-splicing fitness (ln)” value (37 °C) was -3.17 ± 0.26.
As for GCUUAGCAAUAUUACGUGAU, the “self-splicing fitness (ln)” value was -0.4 ± 0.065 (30 °C) and -0.482 ± 0.068 (37 °C).
With UCUGAGCAAUAUUACGGAUG, the “self-splicing fitness (ln)” value was -4.11 ± 0.31 (30 °C) and -2.14 ± 0.23 (37 °C).

The values are drawn from the supplement of paper PMC7877785.
